{
  "source": "paper PMC3248755",
  "proteins": {"B1": {"name": "human dimethylarginine dimethylaminohydrolase-1 (DDAH-1) (Homo sapiens) (protein)", "chain": "MAGLGHPAAFGRATHAVVRALPESLGQHALRSAKGEEVDVARAERQHQLYVGVLGSKLGLQVVELPADESLPDCVFVEDVAVVCEETALITRPGAPSRRKEVDMMKEALEKLQLNIVEMKDENATLDGGDVLFTGREFFVGLSKRTNQRGAEILADTFKDYAVSTVPVADGLHLKSFCSMAGPNLIAIGSSESAQKALKIMQQMSDHRYDKLTVPDDIAANCIYLNIPNKGHVLLHRTPEEYPESAKVYEKLKDHMLIPVSMSELEKVDGLLTCCSVLINKKVDS"}},
  "substrate": "CSC(=N)NCCC[C@H](N)C(=O)O",
  "experiment": "steady-state kinetics",
  "format": "biochemical, Homo sapiens",
  "data": [
    {"protein": "B1", "values": [
      {"measurement": "Km", "value": "0.37 ± 0.03", "unit": "µM"}
    ]}
  ]
}
